Where two headings read alike, the source gives them in different places.
Columns and labels:
AP3-AA = target: T1, AP3-AA; experiment: two-hybrid library CCmax;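 also: natural log of median RNA to DNA barcode read ratio; higher means stronger binding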
T1 chain: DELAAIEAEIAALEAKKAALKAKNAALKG

zCON9_B = target: T2, zCON9_B; experiment: two-hybrid library CCmax; details: mean of both orientations;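 also: natural log of median RNA to DNA barcode read ratio; higher means stronger binding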
T2 chain: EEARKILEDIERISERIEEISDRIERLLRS

AP1-AA = target: T3, AP1-AA; experiment: two-hybrid library CCmax;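 also: natural log of median RNA to DNA barcode read ratio; higher means stronger binding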
T3 chain: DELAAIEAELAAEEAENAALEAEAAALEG

AP4-AA = target: T4, AP4-AA; experiment: two-hybrid library CCmax;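 also: natural log of median RNA to DNA barcode read ratio; higher means stronger binding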
T4 chain: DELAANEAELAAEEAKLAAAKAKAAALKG

O11-AA = target: T5, O11-AA; experiment: two-hybrid library CCmax; details: mean of both orientations;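 also: natural log of median RNA to DNA barcode read ratio; higher means stronger binding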
T5 chain: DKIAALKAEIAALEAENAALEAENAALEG

zCON9_A = target: T6, zCON9_A; experiment: two-hybrid library CCmax;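 also: natural log of median RNA to DNA barcode read ratio; higher means stronger binding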
T6 chain: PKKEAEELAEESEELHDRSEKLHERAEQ

P9-AA = target: T7, P9-AA; experiment: two-hybrid library CCmax
T7 chain: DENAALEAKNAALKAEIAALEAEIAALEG

P11-AA = target: T8, P11-AA; experiment: two-hybrid library CCmax
T8 chain: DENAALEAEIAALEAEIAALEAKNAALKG

P3-AA = target: T9, P3-AA; experiment: two-hybrid library CCmax
T9 chain: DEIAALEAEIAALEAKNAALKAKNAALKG

AP7-AA = target: T10, AP7-AA; experiment: two-hybrid library CCmax
T10 chain: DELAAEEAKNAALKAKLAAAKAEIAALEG

4H_BCR = target: T11, 4H_BCR; experiment: two-hybrid library CCmax
T11 chain: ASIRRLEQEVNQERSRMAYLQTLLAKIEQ

P7-AA = target: T12, P7-AA; experiment: two-hybrid library CCmax
T12 chain: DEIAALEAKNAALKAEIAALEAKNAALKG

O13-AA = target: T13, O13-AA; experiment: two-hybrid library CCmax; details: mean of both orientations
T13 chain: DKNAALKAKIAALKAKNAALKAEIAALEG

zCON9_D = target: T14, zCON9_D; experiment: two-hybrid library CCmax; details: mean of both orientations
T14 chain: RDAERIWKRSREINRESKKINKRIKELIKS

P8-AA = target: T15, P8-AA; experiment: two-hybrid library CCmax
T15 chain: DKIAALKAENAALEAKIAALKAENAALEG

4H_GCN4 = experiment: two-hybrid library CCmax; details: mean of both orientations
Chain of 4H_GCN4 (chain, as listed by the source): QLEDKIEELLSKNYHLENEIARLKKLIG

AP5-AA = target: T16, AP5-AA; experiment: two-hybrid library CCmax
T16 chain: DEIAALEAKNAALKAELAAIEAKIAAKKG

P1-AA = target: T17, P1-AA; experiment: two-hybrid library CCmax
T17 chain: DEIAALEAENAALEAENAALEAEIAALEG

AP6-AA = target: T18, AP6-AA; experiment: two-hybrid library CCmax
T18 chain: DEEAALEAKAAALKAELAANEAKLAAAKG

P10-AA = target: T19, P10-AA; experiment: two-hybrid library CCmax
T19 chain: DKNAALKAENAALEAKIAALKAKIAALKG

P12-AA = target: T20, P12-AA; experiment: two-hybrid library CCmax
T20 chain: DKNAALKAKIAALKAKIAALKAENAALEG

AP2-AA = target: T21, AP2-AA; experiment: two-hybrid library CCmax
T21 chain: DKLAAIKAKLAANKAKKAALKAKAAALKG

P2-AA = target: T22, P2-AA; experiment: two-hybrid library CCmax
T22 chain: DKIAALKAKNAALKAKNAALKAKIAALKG

GCN2_T = experiment: two-hybrid library CCmax
O14-AA = target: T23, O14-AA; experiment: two-hybrid library CCmax; details: mean of both orientations
T23 chain: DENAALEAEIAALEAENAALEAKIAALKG

AP8-AA = target: T24, AP8-AA; experiment: two-hybrid library CCmax
T24 chain: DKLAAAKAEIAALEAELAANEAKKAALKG

P4-AA = target: T25, P4-AA; experiment: two-hybrid library CCmax
T25 chain: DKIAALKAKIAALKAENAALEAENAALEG

O7 [1] = target: T26, O7; experiment: two-hybrid library CCNG1
T26 chain: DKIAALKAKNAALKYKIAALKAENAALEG

O5 [2] = target: T27, O5; experiment: two-hybrid library CCNG1
T27 chain: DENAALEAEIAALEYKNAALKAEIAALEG

O9 [3] = target: T28, O9; experiment: two-hybrid library CCNG1
T28 chain: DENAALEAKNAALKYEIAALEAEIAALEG

O2 [4] = target: T29, O2; experiment: two-hybrid library CCNG1
T29 chain: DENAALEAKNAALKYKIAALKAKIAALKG

O6 [5] = target: T30, O6; experiment: two-hybrid library CCNG1
T30 chain: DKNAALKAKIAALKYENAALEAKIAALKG

O3 [6] = target: T31, O3; experiment: two-hybrid library CCNG1
T31 chain: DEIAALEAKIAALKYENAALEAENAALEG

O4 [7] = target: T32, O4; experiment: two-hybrid library CCNG1
T32 chain: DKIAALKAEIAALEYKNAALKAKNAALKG

O16 [8] = target: T33, O16; experiment: two-hybrid library CCNG1
T33 chain: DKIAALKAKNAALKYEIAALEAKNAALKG

O8 [9] = target: T34, O8; experiment: two-hybrid library CCNG1
T34 chain: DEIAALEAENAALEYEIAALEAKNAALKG

O4 [10] = target: T35, O4; experiment: two-hybrid library CC0; details: mean of both orientations
T35 chain: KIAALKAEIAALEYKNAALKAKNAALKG

O3 [11] = target: T36, O3; experiment: two-hybrid library CC0; details: mean of both orientations
T36 chain: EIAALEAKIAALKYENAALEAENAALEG

O7 [12] = target: T37, O7; experiment: two-hybrid library CC0; details: mean of both orientations
T37 chain: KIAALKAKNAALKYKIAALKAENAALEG

O6 [13] = target: T38, O6; experiment: two-hybrid library CC0; details: mean of both orientations
T38 chain: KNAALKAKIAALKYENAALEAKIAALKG

O5 [14] = target: T39, O5; experiment: two-hybrid library CC0; details: mean of both orientations
T39 chain: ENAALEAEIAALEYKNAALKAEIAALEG

O2 [15] = target: T40, O2; experiment: two-hybrid library CC0; details: mean of both orientations
T40 chain: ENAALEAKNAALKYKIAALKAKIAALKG

O16 [16] = target: T41, O16; experiment: two-hybrid library CC0; details: mean of both orientations
T41 chain: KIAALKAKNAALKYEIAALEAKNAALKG

O9 [17] = target: T42, O9; experiment: two-hybrid library CC0; details: mean of both orientations
T42 chain: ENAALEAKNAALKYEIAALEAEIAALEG

O8 [18] = target: T43, O8; experiment: two-hybrid library CC0; details: mean of both orientations
T43 chain: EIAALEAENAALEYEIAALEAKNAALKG

Binder: ASIRRLEQEVNQERSRMAYLQTLLAKIEQ [4H_BCR]
- interaction score (AP3-AA; mean of both orientations): -1.8
- interaction score (zCON9_B): -0.916
- interaction score (AP1-AA; mean of both orientations): -1.92
- interaction score (AP4-AA; mean of both orientations): -1.51
- interaction score (O11-AA): -1.66
- interaction score (zCON9_A): -2.12
- interaction score (P9-AA; mean of both orientations): -1.88
- interaction score (P11-AA; mean of both orientations): -1.68
- interaction score (P3-AA; mean of both orientations): -2.12
- interaction score (AP7-AA; mean of both orientations): -1.69
- interaction score (4H_BCR): -1.84
- interaction score (P7-AA; mean of both orientations): -1.28
- interaction score (O13-AA): -1.72
- interaction score (zCON9_D): -1.5
- interaction score (P8-AA; mean of both orientations): -1.85
- interaction score (4H_GCN4): -1.7
- interaction score (AP5-AA; mean of both orientations): -1.5
- interaction score (P1-AA; mean of both orientations): -1.71
- interaction score (AP6-AA; mean of both orientations): -1.75
- interaction score (P10-AA; mean of both orientations): -1.67
- interaction score (P12-AA; mean of both orientations): -1.94
- interaction score (AP2-AA; mean of both orientations): -2.54
- interaction score (P2-AA; mean of both orientations): -2.08
- interaction score (GCN2_T): -2.01
- interaction score (O14-AA): -0.776
- interaction score (AP8-AA; mean of both orientations): -1.28
- interaction score (P4-AA; mean of both orientations): -1.94

Binder: DKIAALKAKNAALKYEIAALEAKNAALKG
- interaction score (O7 [1]): -1.81
- interaction score (O5 [2]): -1.91
- interaction score (O9 [3]): -2.26
- interaction score (O2 [4]): -2.29
- interaction score (O6 [5]): -1.46
- interaction score (O3 [6]): -1.85
- interaction score (O4 [7]): -1.89
- interaction score (O16 [8]): -2.69
- interaction score (O8 [9]): -0.596

Binder: KIAALKAKNAALKYEIAALEAKNAALKG
- interaction score (O4 [10]): -2.71
- interaction score (O3 [11]): -2.69
- interaction score (O7 [12]): -2.48
- interaction score (O6 [13]): -1.77
- interaction score (O5 [14]): -2.68
- interaction score (O2 [15]): -2.67
- interaction score (O16 [16]): -2.76
- interaction score (O9 [17]): -2.65
- interaction score (O8 [18]): 0.382

Binder: KRLKQLRKRKQAKRWEEAQIEKELQAIEK [4H_APH2]
- interaction score (AP3-AA): -1.71
- interaction score (AP1-AA): -1.22
- interaction score (AP4-AA): -1.35
- interaction score (P9-AA): -1.85
- interaction score (P11-AA): -1.87
- interaction score (AP7-AA): -1.91
- interaction score (4H_BCR): -1.77
- interaction score (P7-AA): -1.59
- interaction score (P8-AA): -1.79
- interaction score (AP5-AA): -1.71
- interaction score (P1-AA): -1.37
- interaction score (AP6-AA): -1.16
- interaction score (P10-AA): -1.63
- interaction score (P12-AA): -1.31
- interaction score (AP2-AA): -2.23
- interaction score (AP8-AA): -1.53
- interaction score (P4-AA): -1.76

Binder: DELAAIEAELAAEEAENAALEAEAAALEG [AP1-AA]
- interaction score (AP3-AA; mean of both orientations): -1.43
- interaction score (AP1-AA): -1.8
- interaction score (AP4-AA; mean of both orientations): -1.14
- interaction score (P9-AA; mean of both orientations): -1.77
- interaction score (P11-AA; mean of both orientations): -1.38
- interaction score (P3-AA): -1.19
- interaction score (AP7-AA; mean of both orientations): -1.41
- interaction score (P7-AA; mean of both orientations): -1.65
- interaction score (P8-AA; mean of both orientations): -1.49
- interaction score (AP5-AA; mean of both orientations): -1.52
- interaction score (P1-AA; mean of both orientations): -1.54
- interaction score (AP6-AA; mean of both orientations): -2.13
- interaction score (P10-AA; mean of both orientations): -1.61
- interaction score (P12-AA; mean of both orientations): -1.66
- interaction score (AP2-AA; mean of both orientations): -1.59
- interaction score (P2-AA; mean of both orientations): 0.117
- interaction score (GCN2_T): -2.11
- interaction score (AP8-AA; mean of both orientations): -1.34
- interaction score (P4-AA; mean of both orientations): -1.4

Binder: KRLKQIEKRLQAKEWEKAQLRKELQALRK [4H_APH4]
- interaction score (AP3-AA): -1.44
- interaction score (AP1-AA; mean of both orientations): -1.81
- interaction score (AP4-AA; mean of both orientations): -1.78
- interaction score (P9-AA): -1.79
- interaction score (P11-AA): -1.36
- interaction score (P3-AA): -1.05
- interaction score (AP7-AA): -2.06
- interaction score (4H_BCR): -1.95
- interaction score (P7-AA): -1.7
- interaction score (P8-AA): -2.2
- interaction score (AP5-AA): -1.61
- interaction score (P1-AA): -2.2
- interaction score (AP6-AA): -2.8
- interaction score (P10-AA): -1.38
- interaction score (P12-AA): -2.07
- interaction score (AP2-AA): -2.2
- interaction score (P2-AA): -1.88
- interaction score (AP8-AA): -1.39
- interaction score (P4-AA): -2.31

Binder: KRAKQLRKRLQALEWQLAQIRKELQAAEK [4H_APH3]
- interaction score (AP1-AA): -1.7
- interaction score (AP4-AA): -1.76
- interaction score (P9-AA): -0.77
- interaction score (P11-AA): 0.988
- interaction score (P3-AA): -1.01
- interaction score (AP7-AA): -1.94
- interaction score (4H_BCR): -1.42
- interaction score (P7-AA): -1.07
- interaction score (P8-AA): -1.41
- interaction score (AP5-AA): -0.968
- interaction score (P1-AA): -1.41
- interaction score (AP6-AA): -2.3
- interaction score (P10-AA): -0.731
- interaction score (P12-AA): -1.53
- interaction score (AP2-AA): -1.83
- interaction score (P2-AA): -1.85
- interaction score (AP8-AA): -0.758
- interaction score (P4-AA): -2.3
